Test results: the DeepSol protein solubility set

assay: soluble on expression in E. coli; label from the status in PepcDB or PDB records

| Sequence | soluble on expression in E. coli |
| --- | --- |
| MDREVEAQIGLNNVKILKSNILDSDEGKLFLKFGDEDLVIGELESLKAIQSTETILCPKPFGIIRRNGSYSLITSYIDFQLRKDWALAGSQLAKMHAKNGEQLAQNARRTRFVSVNSGMSDISKSEEGEQIGTENFGFHVTTCCGRLGQENDWTETWEEFFIRHRLKPQIDRLIETHNDRQLFELSEILYTKTAKLLKCRENVLPSLVHGDLWGGNWSMTTADGAPEPIIFDPSSSYSDPEFEFGIMKMFGGWTQDFENKYEKIIKTADGKNQRVLLYELYHNLNHWNHFGNSYRKKEKKLDKIYNNVYNNCYNNVRKNYCTKRITPKSGKLRNKAVRHPDFLANGIRRSPNLNFRSAIVICRSPFAAQPWYVAQLSKLEVMITDLIQM | not soluble |
| MDRIPFGIRQLDSIINGGAPAGSVVLLSGEAGAGSREFMHTSALINGLEQVDTELHDLYYGDRSPDAVAPDEVHYISFTTNESQLVSEMRLAMDDDVVDKGSRAVEFHDLSERYFHISPVPREWYASETASITDLRARHEREDLLGTLGMVLNEVAANNLVVIDSLSDLVSAMGEEIEWSDISSLVQGLQKAAHQWGCLLLLHINPETLSTVRHGQLVDASHGTMEFAWESGGSTRARTLVVQQFRGVLSQIEDEDIVQFETELGDAGFDISDVRKIRLEHHHHHH | not soluble |
| MDRMKIEAVIFDWAGTTVDYGCFAPLEVFMEIFHKRGVAITAEEARKPMGLLKIDHVRALTEMPRIASEWNRVFRQLPTEADIQEMYEEFEEILFAILPRYASPINAVKEVIASLRERGIKIGSTTGYTREMMDIVAKEAALQGYKPDFLVTPDDVPAGRPYPWMCYKNAMELGVYPMNHMIKVGDTVSDMKEGRNAGMWTVGVILGSSELGLTEEEVENMDSVELREKIEVVRNRFVENGAHFTIETMQELESVMEHIEKQELIIS | soluble |
| MDRQAIEKTAGHLRPLMPTPPEIGLILGSGLGVLADEIEEAVRIPYEDIPGFPVSTVEGHAGRLVYGRLEGATVVAMQGRFHYYEGYSLQEVTFPVRVMKALGVRELIVTNAAGGINERFQPGDFMIISDHINLLGTNPLIGPNDPELGPRFPDMTEAYSRRLRELAKETAARLGVRVHEGVYVANTGPSYETPAEIRMIRTLGGDAVGMSTVPEVIVARHGGIEVLGISCISNMAAGMSDAPLHHDEVVETAERVKTDFLRFVKAIVAEMAKSKRKR | soluble |
| MDSPIINEQFWDALFFNGTMPWDRSQTPNELKHYLKRIADKTHSVFIPGCGAAYEVSHFVDCGHDVIAMDYSAEAVNLAKSQLGQHQDKVMLGDVFNADFSREFDVIYERAFLAALPREIWGDYFAMIERLLPSNGLLVGYFVISDDYRSRFPPFCLRSGEIEQKLEANFHLIESTPVTDSVDVFKGKEQWMVWQKLEHHHHHH | not soluble |
| MDSYGYIETMGLLTAIEAADAALKAANVVFTNCYIVKGGIVTVELAGDVAAVTAAVEAGSESARKLGNFISKNVIARVDDETKKILKGDTFISDNNKDGKTEKEISEEELLQNEMEKEEESIEELDALEEIIKADIPTAEGDIPLYDEVIKSPEFSELENDEEAKIITETVKRNDSDGEPYETQEKITVIEEEINTKQTNNNTDYENMKVTDLRGIVKELNSHLTWNQVKAMNKKKLVETLKKNKREK | not soluble |
| MDSYTSSDEDASRKENEGLNMLNASPEPMEEDDPEEQAEQEEETSRMARPIRSMRKRETTSGESMGDEDEDLEDEEDEDEEAEAREHHESGAHDTSFSNPLSNVDNLIHVGTEYQAIIQPTAEQLEKEPCRDQQIWAFPDEMNENRLTEYISEATGRYQLPIDRALFILNKQSNDFDAAMVQAMRRKEIHDDWTAEEISLFSTCFFHFGKRFKKIHAAMPQRSLSSIIQYYYNTKKVQNYKTMINVHLNETDTYDELFKEVNHLERVPSGYCENCNAKSDLLILNRVMSRHECKPCILYFRLMRVPRPASLRALTKRRQRVLCPEYMKIYVYGYLELMEPANGKAIKRLGIGKEKEEDDDIMVVDDCLLRKPSGPYIVEQSIEADPIDENTCRMTRCFDTPAALALIDNIKRKHHMCVPLVWRVKQTKCMEENEILNEEARQQMFRATMTYSRVPKGEIANWKKDMMALKGRFERFTPELDTTATNGNRSGKVRINYGWSPEEKKNAIRCFHWYKDNFELIAELMATKTVEQIKKFYMDNEKLILESIDTYRAELKSKLGK | not soluble |
| MDTEDTSGYSSLKSSPQSSDENFFKRLQWGKIRLELKTPEFLKESSELEIEKNEKSGIQKCGENEGENEEKCEFRPVVTPNEIDSHKEWYHRLLMLKLEYKRGERGAFPPFPPPPLPSMMIAASNAVSFNAFDEVKRAAQAKTAKSPSTSSLERRAQRFCPADFQPLPPPHIYIEMIRTLAPHQYIDLTYALAGSVLLEMGVKIPDRYPNLPPKIEPYRDIESEEAAHWTEMSSQSSSEGEYSDASESAKLVQTLNRRKNKERRETRKIRIVASMLTSSTFSMKKKRKNEGLDFKHETFPRDYDYKEKTLSTFIPPRIARRPPIPPPQFFFPPSPHFSREPHSLPPMPMMLPIPLPPMSLSSPISPIHFQKNLQSTPERPSRTDSSRVHAKQIKNDIIIVEKVTDV | not soluble |
| MDTKPPIERSMYIELRTSLEMFRGDLVDLEALANASRDALDQLPFVPKGAKTDHDEAHPNPDPESALRSGRLDSLVCATASAAQSALVTCVKLIDWAYEYEPDDEDDDDDDMVPMDDIDDDDDDDDDDENGGSSGANGGGSNGSGRSGPPDDNGAGAASASVADEFANARPSRGGIVLDLPTRASTTDGPVDAR | not soluble |
| MDTLHQQLCTHSGSTSPKGLYLWGDVGRGKTFLMDLFYDALPQRGKLRLHFHRFMARVHQALKVHAGQRDPLKLIAKNLAKECKVLCFDEFFVSDIGDAMILAGLFETLFAQGVVLVATSNIPIERLYENGLARHRFLPCIALLQAHTQMLHLNGKQDHRLHALSAKPSAEALAATSHNIGLTGTLDFDGIFAALTQNSPSIKDGKLRVCQREISVIRATTENQLPSVAWFDFNALCDGPRSQLDYIEIASRFKVLMLSNVPRLGGEVKGWIRARGTEDGTGDNQAATTGERQLSYAVNDDPARRFISLIDELYDQDVSLYLSCDVPLTELYQGGALSFEFRRTYSRLIEMSHSAAMKLTY | not soluble |
| MDVAALVSGGVDSSVVVHRLCEEGYKPAIFYIRIGMEDKDGYIDCPAEEDIELTTLIARRYGCPFEVVDLHKEYWERVVSYTVETVRRGLTPNPDMMCNKLIKFGCFEERWGYQFDRIATGHYATTDLLNGKTYLSTAKDPVKDQTDFLAQINFAQISKLMFPIGHLLKSEVRAIANAAGLPSAKRKDSQGICFLGKIDYNDFIERYLGKKEGRIIELETGKVIGRHQGYWFHTIGQRKGLGLSGGPWFVVKKDIKRNIILVSRGYDPDAQYGKTIEMETFDFITEDAYEAGYWNREDATPVTFKIRHTPEFTRGLLYKGEKGYRLESEERIQGIAPGQYCVIYDEDHHLCYGSGMITKGR | not soluble |
| MDVKNAFVETAMGVLSEFGFSSVFAEKNETGGLVEAEYVNVVMGVNGAISGNLIMTAKKESALAIASAMLGGMEFTEVDDMVKSAIGELLNIIAGNAFSKVDVKAAVYISTPTLLIGEGISVLLQSPGTNKLVFDMDGQSMDVFLDIE | not soluble |
| MDVMALKREVIEYSRSIGIDKIGFASADPFVELKERLRRQQELGYQSGFEEPDIEKRTNPSLLLPEAKSIIAIALAYPSKMKNAPRGTKTERRGVFCRASWGKDYHDVLRERLQQLEEFLLAKVPHARVRSMVDTGELADRAVAERAGIGWSGKNCSIITPEFGSYVYLGEMITNIPFPPDEPVENRCGTCTKCIDACPTGALVQGGQLNAQRCLSFLTQTKGFLADEFREKIGNRLYGCDTCQQVCPENKGKDFHLHPEFEPDPEAVKPKLIPLLQMSNREFKETFGAMAGSWRGKKPIQRNAILALAHYKDQTAVPHLLRLLKEDSRPVIRGTAAWALGKIGDPSAKSYLEAARPTEADADVIAEIEKGLKLLAEAKE | not soluble |
| MDVMNAFDSQAEDSPTSLGRSLRRRPLARKKLSEMVEEELEQMIRRHEFGEGEQLPSERELMAFFNVGRPSVREALAALKRKGLVQINNGERARVSRPSADTIISELSGMAKDFLTHPGGIAHFEQLRLFFESSLVRYAAEHATDEQIALLTKALEINSQSLDDNALFIRSDVEFHRVLAEIPGNPIFMAIHVALLDWLIAARPSVPDRELHEHNNVSYQQHIVIVDAIRQRDPDKADRALQTHLNSVSATWHALGKKSQKMR | not soluble |
